Experimental data reported in paper PMC5096451.

Molecular target: RhoA (UniProt P61586)
Sequence (P61586 whole entry): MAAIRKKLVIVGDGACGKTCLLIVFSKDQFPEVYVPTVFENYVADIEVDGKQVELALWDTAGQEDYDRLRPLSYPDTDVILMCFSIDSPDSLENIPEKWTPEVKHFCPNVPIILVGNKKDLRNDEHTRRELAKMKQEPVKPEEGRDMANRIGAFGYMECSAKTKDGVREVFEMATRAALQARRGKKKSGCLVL

Sequence of SseJ (Q9FD10 whole entry): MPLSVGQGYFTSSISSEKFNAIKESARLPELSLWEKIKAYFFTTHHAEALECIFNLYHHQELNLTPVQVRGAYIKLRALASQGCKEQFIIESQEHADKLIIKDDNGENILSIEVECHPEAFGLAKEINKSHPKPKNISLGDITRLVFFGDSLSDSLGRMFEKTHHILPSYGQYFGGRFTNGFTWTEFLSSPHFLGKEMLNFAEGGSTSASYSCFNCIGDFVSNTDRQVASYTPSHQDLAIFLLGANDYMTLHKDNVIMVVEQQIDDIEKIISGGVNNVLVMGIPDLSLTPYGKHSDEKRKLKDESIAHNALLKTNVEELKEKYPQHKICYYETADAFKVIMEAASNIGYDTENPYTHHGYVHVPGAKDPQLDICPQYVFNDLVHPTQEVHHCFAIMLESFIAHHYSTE

**Q.** Which results are given for “SseJ (from UniProt Q9FD10 1-408) (enzyme)”?
**A.** SseJ lipase stimulation (PNPP), 200 nM SseJ and 200 nM RhoA-GDP: 0.21 mAU/min; SseJ lipase stimulation (PNPP), 200 nM SseJ and 200 nM RhoA-GTPγS: 1.2 mAU/min
